According to FireProtDB (doi:10.1006/jmbi.2001.4521):

Settings: Drosophila melanogaster, pH 6, Thermal, CD, phosphate 50 mM, Na2SO4 0.4 M, whole UniProt chain shown

B1: Growth factor receptor-bound protein 2 wild type, Q08012 (protein)
chain: MEAIAKHDFSATADDELSFRKTQILKILNMEDDSNWYRAELDGKEGLIPSNYIEMKNHDWYYGRITRADAEKLLSNKHEGAFLIRISESSPGDFSLSVKCPDGVQHFKVLRDAQSKFFLWVVKFNSLNELVEYHRTASVSRSQDVKLRDMIPEEMLVQALYDFVPQESGELDFRRGDVITVTDRSDENWWNGEIGNRKGIFPATYVTPYHS
25 °C
  unfolding free energy: 1.8 kcal/mol
  Tm: 63.7 °C
